Measurements published in the Immune Epitope Database (IEDB).

Assays:
Test in all cases: IEDB peptide-MHC binding, purified MHC/direct/fluorescence; filed as Kd, often an IC50 or EC50 that approximates it; ≥ and ≤ were set here for values at or beyond the usual limits of such assays
HLA-A*01:01 = conditions: source organism: Salmonella enterica
HLA-A*02:10 = conditions: source organism: Salmonella enterica subsp. enterica serovar Typhimurium str. LT2
HLA-A*02:11 = conditions: source organism: Salmonella enterica subsp. enterica serovar Typhimurium str. LT2
HLA-A*02:12 = conditions: source organism: Salmonella enterica subsp. enterica serovar Typhimurium str. LT2
HLA-A*02:19 = conditions: source organism: Salmonella enterica subsp. enterica serovar Typhimurium str. LT2
HLA-A*02:50 = conditions: source organism: Salmonella enterica subsp. enterica serovar Typhimurium str. LT2
HLA-A*03:01 = conditions: source organism: Salmonella enterica
HLA-A*11:01 = conditions: source organism: Salmonella enterica
HLA-A*23:01 = conditions: source organism: Salmonella enterica subsp. enterica serovar Typhimurium str. LT2
HLA-A*24:03 = conditions: source organism: Salmonella enterica subsp. enterica serovar Typhimurium str. LT2
HLA-A*26:02 = conditions: source organism: Salmonella enterica subsp. enterica serovar Typhimurium str. LT2
HLA-A*29:02 = conditions: source organism: Salmonella enterica subsp. enterica serovar Typhimurium str. LT2
HLA-A*31:01 = conditions: source organism: Salmonella enterica
HLA-A*69:01 = conditions: source organism: Salmonella enterica
HLA-B*08:01 = conditions: source organism: Salmonella enterica subsp. enterica serovar Typhimurium str. LT2
HLA-B*08:02 = conditions: source organism: Salmonella enterica subsp. enterica serovar Typhimurium str. LT2
HLA-B*18:01 = conditions: source organism: Salmonella enterica subsp. enterica serovar Typhimurium str. LT2
HLA-B*27:05 = conditions: source organism: Salmonella enterica
HLA-B*38:01 = conditions: source organism: Salmonella enterica subsp. enterica serovar Typhimurium str. LT2
HLA-B*39:01 = conditions: source organism: Salmonella enterica subsp. enterica serovar Typhimurium str. LT2
HLA-B*40:01 = conditions: source organism: Salmonella enterica
HLA-B*46:01 = conditions: source organism: Salmonella enterica
HLA-B*48:01 = conditions: source organism: Salmonella enterica
HLA-B*57:01 = conditions: source organism: Salmonella enterica
HLA-B*58:01 = conditions: source organism: Salmonella enterica

Measured: Kd

FPASHMATY
0.114 µM: HLA-A*29:02
≤ 0.001 µM: HLA-A*26:02
0.007 µM: HLA-B*18:01
9 µM: HLA-B*46:01
≥ 20 µM: all other assays above
